What was measured:
human Nav1.5 channels = molecular target: T1, human Nav1.5 channels (Homo sapiens, UniProt Q14524); experiment: INa density, whole-cell patch-clamp in CHO cells co-transfected with Nav1.5 and the cDNA encoding the peptide; type: cell-based; conditions: vs. cells transfected only with Nav1.5 channels, various membrane potentials, P<0.05
T1 construct: expressed in transfected cells; host or cells: CHO (Chinese hamster ovary) cells
Procedure: To analyse the effect of the peptides designed in example 1 on INa and IK1, the cDNA that encodes SEQ ID NO: 3 or SEQ ID NO: 4, described in SEQ ID NO: 5 and 20, respectively, was cloned into a pcDNA3.1^(+)® vector (Invitrogen) for transfection of Chinese hamster ovary (CHO) cells that were in turn transfected with the cDNA that encodes the human Nav1.5 channels (SEQ ID NO: 21). The CHO cells were further co-transfected with the EBO-pcD leu 2 vector (0.5 µg), which encodes the expression of the CD8 surface antigen. The subsequent addition of anti-CD8 antibody, bonded to Dynabeads M450® microspheres, allowed the cells that had been transfected to be identified. […] The currents were recorded at 20-22°C using an Axopatch 200B amplifier, filtered at half the sampling frequency and stored in a computer for further analysis. […] The capacitive current artefacts generated after the application of pulses from 0 mV to +10 mV were recorded at 50 kHz (filtered at 10 kHz) to calculate the capacitance of the cell, the access resistance and the input impedance. […] INa was recorded by applying 50 ms pulses from a holding potential of -120 mV to potentials between -80 and +50 mV in 5 mV increments. […]

[1] = tested on: dissociated cardiomyocytes from Sham and TAC mice; experiment: Capacitance (cell size) of dissociated cardiomyocytes, murine TAC model of HFrEF; type: in vivo; conditions: TAC animals treated with DECA-11 (AAV9) vs. untreated TAC animals
Text: A murine model of CI with reduced ejection fraction (HFrEF) was used to analyse the effect of SEQ ID NO: 3 on the decrease in INa and IK1 caused by electrical remodelling associated with Cl. The mice are subjected to transverse aortic constriction (TAC) with ligation, and pressure overload leads to the occurrence of cardiac hypertrophy and Cl. The mice were produced at the Medical Research Centre of the University of Navarra (CIMA), under the direction of Dr Aránzazu González Miqueo.
Eight-week-old mice were administered 3.5×10^10 particles of adeno-associated virus type 9 that encoded either the fluorescent reporter td-Tomato (Aav-dt-T) alone, or the reporter and the peptide DECA-11. At 12 weeks of age, an echocardiographic check-up (baseline) was performed and at week 13 they underwent surgery in which the aorta was ligated (TAC animals) or not (Sham animals).
That same week they were sent to the UCM animal facility. Next, the mice were heparinised and anaesthetised and then sacrificed by cervical dislocation, at a rate of one per day, and a thoracotomy was performed to remove the heart which was mounted through the aorta into a cannula connected to a Langendorff apparatus for enzymatic dissociation of the cardiac myocytes. […]

[2] = tested on: human iPSC-derived cardiomyocytes; conditions: hiPSC-CM; sustained current sensitive to TTX (10 µM), as percentage of the current peak; 500 ms pulses from -120 to -45 mV

T1 sequence (Q14524 1-2015 isoform Q14524-2): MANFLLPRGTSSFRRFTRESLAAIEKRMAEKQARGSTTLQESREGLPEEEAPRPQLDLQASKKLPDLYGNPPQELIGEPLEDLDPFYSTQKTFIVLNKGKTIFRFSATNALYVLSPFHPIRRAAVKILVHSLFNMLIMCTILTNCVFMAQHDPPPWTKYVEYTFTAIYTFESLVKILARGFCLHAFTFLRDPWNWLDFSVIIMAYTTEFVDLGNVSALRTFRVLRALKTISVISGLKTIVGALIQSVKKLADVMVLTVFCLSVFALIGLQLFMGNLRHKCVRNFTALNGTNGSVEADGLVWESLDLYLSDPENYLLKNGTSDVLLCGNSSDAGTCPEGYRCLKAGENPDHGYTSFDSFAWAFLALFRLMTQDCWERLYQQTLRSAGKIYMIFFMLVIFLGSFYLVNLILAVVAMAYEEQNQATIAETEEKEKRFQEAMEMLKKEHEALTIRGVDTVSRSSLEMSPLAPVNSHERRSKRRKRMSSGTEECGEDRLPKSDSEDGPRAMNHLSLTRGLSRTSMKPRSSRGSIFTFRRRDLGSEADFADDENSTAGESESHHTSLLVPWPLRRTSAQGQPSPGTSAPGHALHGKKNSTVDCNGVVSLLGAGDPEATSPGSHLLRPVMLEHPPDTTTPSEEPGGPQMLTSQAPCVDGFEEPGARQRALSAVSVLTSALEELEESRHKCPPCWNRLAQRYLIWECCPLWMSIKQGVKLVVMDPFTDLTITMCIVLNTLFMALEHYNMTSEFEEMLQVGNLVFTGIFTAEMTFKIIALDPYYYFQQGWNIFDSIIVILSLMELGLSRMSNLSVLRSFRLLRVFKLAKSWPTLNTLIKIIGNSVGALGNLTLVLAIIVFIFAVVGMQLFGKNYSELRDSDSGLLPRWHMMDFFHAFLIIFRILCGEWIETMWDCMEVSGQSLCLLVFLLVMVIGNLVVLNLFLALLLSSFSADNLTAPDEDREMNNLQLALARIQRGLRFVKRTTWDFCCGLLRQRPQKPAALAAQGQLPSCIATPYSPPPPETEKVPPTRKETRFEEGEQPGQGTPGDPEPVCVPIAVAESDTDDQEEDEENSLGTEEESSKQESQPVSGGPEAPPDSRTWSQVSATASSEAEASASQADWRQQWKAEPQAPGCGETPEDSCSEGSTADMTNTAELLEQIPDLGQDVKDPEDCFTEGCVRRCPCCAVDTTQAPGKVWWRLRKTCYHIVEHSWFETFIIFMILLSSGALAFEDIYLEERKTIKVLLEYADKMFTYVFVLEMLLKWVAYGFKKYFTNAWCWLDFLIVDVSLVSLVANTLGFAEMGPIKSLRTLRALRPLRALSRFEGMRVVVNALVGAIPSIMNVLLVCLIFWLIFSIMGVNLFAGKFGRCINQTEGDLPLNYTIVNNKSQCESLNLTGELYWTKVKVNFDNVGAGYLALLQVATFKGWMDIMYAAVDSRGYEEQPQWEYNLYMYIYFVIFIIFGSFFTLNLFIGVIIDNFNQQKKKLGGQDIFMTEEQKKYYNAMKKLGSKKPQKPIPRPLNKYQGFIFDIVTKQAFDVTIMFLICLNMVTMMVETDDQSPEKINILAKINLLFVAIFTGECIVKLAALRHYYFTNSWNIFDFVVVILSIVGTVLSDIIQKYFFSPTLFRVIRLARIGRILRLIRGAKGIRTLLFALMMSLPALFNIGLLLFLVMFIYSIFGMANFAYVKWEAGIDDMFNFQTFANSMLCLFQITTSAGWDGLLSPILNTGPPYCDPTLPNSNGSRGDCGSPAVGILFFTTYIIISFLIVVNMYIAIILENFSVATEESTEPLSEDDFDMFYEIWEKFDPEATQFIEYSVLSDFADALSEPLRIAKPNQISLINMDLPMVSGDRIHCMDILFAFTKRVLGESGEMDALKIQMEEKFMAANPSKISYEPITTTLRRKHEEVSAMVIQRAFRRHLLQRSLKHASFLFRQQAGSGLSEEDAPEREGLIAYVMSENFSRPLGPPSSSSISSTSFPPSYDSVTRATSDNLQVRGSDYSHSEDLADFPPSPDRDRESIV

RFTRESLAAIE (listed as Homo sapiens) [SEQ ID NO: 3]
density of INa (human Nav1.5 channels): significantly increase | capacitance of myocytes [1]: significantly lower | INaL [2]: does not increase
